These results are taken from the RNAGym collection of RNA variant scans (doi:10.1101/gr.219683.116).

To fix the notation:
B1: mRNA-splicing (parent)
chain: AGUUGCUGCUGGGAGCUCCAGCACAGUGAAAUGGACAGAAGGGCAGAGCAA

This data set covers variants of B1. The data set can be described thus: exon inclusion enrichment index; higher = more inclusion; WT1 exon 5 minigene, HEK293.
Turning to AGUUUCUUUUCUGAGCUCCAGCACAGUGAAAUGGACAGAAGGGCAGAGCAA, the “exon inclusion enrichment index” value is 0.0163. Next, AGUUGACGACGGGAGCAUCAGCACAGUGAAAUGGACAGAAGGGCAGAGCAA: 2.9. For AGUUGACGACGGGAGCUCCAGCACAGUGAAAUGGACAGAAGGGCAGAGCAA, the “exon inclusion enrichment index” value was 3.63. As to AGUUAUAUAUGGGAGCUCCAGCACAGUGAAAUGGACAGAAGGGCUUAGCAA, the “exon inclusion enrichment index” value was 0.0214. To AGUUCACACAGGGAGCUCCAGCACAGUGAAAUGGACAGAAGGUGAGAGCAA belongs 0.112. For AGUUCACACAGGGAGCUCCAGCACAGUGCUAUGGACAGAAGGGCAGAGCAA, the “exon inclusion enrichment index” value came out at 0.0384. With AGUUGCUGCUGGGAGCUCCAGCACAGUGAAAUGGACAGAAGGGCAGGACAA, the “exon inclusion enrichment index” value turned out to be 0.0368. With AGUUUCUUUUGAAAGCUCCAGCACAGUGAAAUGGACAGAAGGGCAGAGCAA, the “exon inclusion enrichment index” value amounted to 0.0133. AGUUACCACCGGGAGCUCCAGCACAGUGAAAUGGACAGAAGGGCAUCGCAA: the “exon inclusion enrichment index” value was determined as 2.94. To AGUUGACGACGGGAGCUCCAGCACAGUGAAAUGGAUUGAAGGGCAGAGCAA belongs 1.97; to AGUUGCUGCUGGGAGCUCCAGCGCAGUGAAAUGGACAGAAGGGCAGAGCAA, 0.414; to AGUUAGGGAUGGUUGCUCCAGCACAGUGAAAUGGACAGAAGGGCAGAGCAA, 0.000524. With AGUUAUAUAUGGGACAUCCAGCACAGUGAAAUGGACAGAAGGGCAGAGCAA, the “exon inclusion enrichment index” value is 0.0446. Next, AGCUAUAUAUGGGAGCUCCAGCACAGUGAAAUGGACAGAAGGGCAGAGCAA: 0.098; AGUUGAUCACGGGAGCUCCAGCACAGUGAAAUGGACAGAAGGGCAGAGCAA: 1.49. For AGUUCGCGCCGGGAGCUCCAGCACCAUGAAAUGGACAGAAGGGCAGAGCAA, the “exon inclusion enrichment index” value amounted to 4.67. Consider AGUUAUAUAUGGGAGCUCCAGCACAGCUAAAUGGACAGAAGGGCAGAGCAA, for which the “exon inclusion enrichment index” value turned out to be 0.0508. On to AGUGUUAUAUGGGAGCUCCAGCACAGUGAAAUGGACAGAAGGGCAGAGCAA, for which the “exon inclusion enrichment index” value was found to be 0.0955.

Consider AGUACACGACGGGAGCUCCAGCACAGUGAAAUGGACAGAAGGGCAGAGCAA, for which the “exon inclusion enrichment index” value came to 2.5.

AGUUGACGACGCCAGCUCCAGCACAGUGAAAUGGACAGAAGGGCAGAGCAA: the “exon inclusion enrichment index” value stood at 1.72. For AGUUGAAGAAGGGAGCUCCAGCACAGUGAAAUGACCAGAAGGGCAGAGCAA, the “exon inclusion enrichment index” value worked out at 0.52.

As for AGUUGCUGCUGGGAGCUCCAGCACAGUGAAAUAUACAGAAGGGCAGAGCAA, the “exon inclusion enrichment index” value was 0.0122.

For AGUUCACACAGGGAGCUCGCGCACAGUGAAAUGGACAGAAGGGCAGAGCAA, the “exon inclusion enrichment index” value stood at 0.111. For the variant AGUUGAAGAAGGGAGCUCCAGCACAGUGAAAUGGACAGCCGGGCAGAGCAA, the “exon inclusion enrichment index” value stood at 1.65. Turning to AGUUUAGUUUGGGAGCUCCAGCACAGUGAAAUGGACAGAAGGGCAGAGCAA, the “exon inclusion enrichment index” value came to 0.013.

With AGUUAGGGAUGGGAGCUCCAGCACAGUGAAAUGGACAGAAGGUAAGAGCAA, the “exon inclusion enrichment index” value came to 0.00143.

As to AGUUCUUCUCGGGAGCUCCAACACAGUGAAAUGGACAGAAGGGCAGAGCAA, the “exon inclusion enrichment index” value came to 1.28. To AGUUGAAGAAGGGAGCUCCAGCACAGUGAAAAGGACAGAAGGGCAGAGCAA belongs 0.442; to AGUUACCUGCGGGAGCUCCAGCACAGUGAAAUGGACAGAAGGGCAGAGCAA, 1.91; to AGUUCACACAGGGAGCUCCAGCACAGUGAAAUGGACAGAAGGGCAGGACAA, 0.0475. With AGUUAUAUAUGGGAGCUCCAGCACAGUGAAAUGGACUAAAGGGCAGAGCAA, the “exon inclusion enrichment index” value was 0.0163. Take AGUUCUUCUCGGGAGCUCCAGCACAGUGAAAUGGACAGAAGGGAGGAGCAA: the “exon inclusion enrichment index” value worked out at 2.98. Next, AGUUCACACAGGUAGCUCCAGCACAGUGAAAUGGACAGAAGGGCAGAGCAA: 0.00463; AGUUCACACAGGGAGCUCCAGCACAGUGAAGGGGACAGAAGGGCAGAGCAA: 0.0429; AGUUCGCGCCGGGAGCUCCAGCACAGUGAACGGGACAGAAGGGCAGAGCAA: 3.82.

AGUUCGCGCCGGGAGCUCCAGCACAGUGAAAUCUACAGAAGGGCAGAGCAA: the “exon inclusion enrichment index” value turned out to be 2.86. AGUUAGGGAUGGGAGCUCCAGCACAGUGAAAUGGACAGAAGGGCUUAGCAA: the “exon inclusion enrichment index” value was determined as 0.000766. For AGCGCUUCUCGGGAGCUCCAGCACAGUGAAAUGGACAGAAGGGCAGAGCAA, the “exon inclusion enrichment index” value came to 1.28. Next, AGUUCGCGCCGGGAGCUCCAGCACAGUGAUAUGGACAGAAGGGCAGAGCAA: 3.07; AGUUACCACCACGAGCUCCAGCACAGUGAAAUGGACAGAAGGGCAGAGCAA: 0.699; AGUUUCUUUUGGGAGCUAGAGCACAGUGAAAUGGACAGAAGGGCAGAGCAA: 0.00406. Regarding AGUUAUAUAUGGGAGCUGAAGCACAGUGAAAUGGACAGAAGGGCAGAGCAA, the “exon inclusion enrichment index” value was determined as 0.0894. Regarding AGUUCGCGCCGGGAGCCACAGCACAGUGAAAUGGACAGAAGGGCAGAGCAA, the “exon inclusion enrichment index” value worked out at 3.59. Turning to AGUUAUAUAUGGGAGCUCCAGCACCGUGAAAUGGACAGAAGGGCAGAGCAA, the “exon inclusion enrichment index” value is 0.501. Regarding AGUUGCUGCCAGGAGCUCCAGCACAGUGAAAUGGACAGAAGGGCAGAGCAA, the “exon inclusion enrichment index” value came to 1.76. To AGUUGCUGCUCCGAGCUCCAGCACAGUGAAAUGGACAGAAGGGCAGAGCAA belongs 1.58; to AGUUUCUUUUGGGAGCGGCAGCACAGUGAAAUGGACAGAAGGGCAGAGCAA, 0.13; to AGUUAUCUAUGGGAGCUCCAGCACAGUGAAAUGGACAGAAGGGCAGAGCAA, 0.249. Consider AGUUGCUGCUGGGAGCUCCAGCACAGUGAAAUGGACAGAAGGGCAUGGCAA, for which the “exon inclusion enrichment index” value worked out at 0.116. As for AGUUGAAGAAGGGAGCUCCAGCACCUUGAAAUGGACAGAAGGGCAGAGCAA, the “exon inclusion enrichment index” value stood at 1.21. Regarding ACCUCGCGCCGGGAGCUCCAGCACAGUGAAAUGGACAGAAGGGCAGAGCAA, the “exon inclusion enrichment index” value is 3.45.
